Reference: patent US20170269080A1 (VIRGINIA COMMONWEALTH UNIVERSITY, published 2017)

T1: PSGL-1 (sLe^x-capped, sialylated) on PSGL-1 CHO cells (UniProt Q14242 42-412, sLe^x-capped (alpha2,3-sialylated, alpha1,3-fucosylated glycan))
T1 construct: whole, on cells; also called sLe^x-modified PSGL-1; sialylated PSGL-1
T1 sequence: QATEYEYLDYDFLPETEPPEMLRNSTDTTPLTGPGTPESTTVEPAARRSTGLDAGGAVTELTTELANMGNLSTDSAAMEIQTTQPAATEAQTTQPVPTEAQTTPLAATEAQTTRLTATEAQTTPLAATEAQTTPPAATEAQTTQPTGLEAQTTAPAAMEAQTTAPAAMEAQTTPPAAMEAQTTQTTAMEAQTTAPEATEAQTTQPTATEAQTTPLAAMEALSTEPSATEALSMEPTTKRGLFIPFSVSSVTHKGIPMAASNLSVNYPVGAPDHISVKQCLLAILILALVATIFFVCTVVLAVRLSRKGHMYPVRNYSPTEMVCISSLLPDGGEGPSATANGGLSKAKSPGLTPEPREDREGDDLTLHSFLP

B1: GST-OmpA (N-terminal glutathione-S-transferase-tagged A. phagocytophilum OmpA without signal sequence) (other)
chain: CGTLLPDSNVGVGRHDLGSHRSVAFAKKVEKVYFDIGKYDLKGPGKKVILELVEQLRQDDSMYLVVIGHADATGTEEYSLALGEKRANAVKQFIIGCDKSLAPRVTTQSRGKAEPEVLVYSTDAQEVEKANAQNRRAVIVVEFAHIPRSGVADMHAPVASSITSENSNASAEGEDMEASEFSSAIAN
notes: also called GST-tagged Aph OmpA; GST-ApOmpA; not shown: glutathione-S-transferase (GST) tag, N-terminal, from vector pDest-15
B2: GST-Asp14 (N-terminal glutathione-S-transferase-tagged A. phagocytophilum Asp14) (other)
chain: MIPLAPWKSISVVYMSGSDEYKEIIKQCIGSVKEVFGEGRFDDVVASIMKMQEKVLASSMQQDDTGTVGQIESGEGSGARLSDEQVQQLMNSIREEFKDDLRAIKRRILKLERAVYGANTPKES
notes: Coding region of asp14 (13.8 kDa) fused to GST; also called recombinant Asp14; not shown: glutathione-S-transferase (GST) tag, N-terminal, from vector pDest-15

Tests used:
[1] = target: T1, PSGL-1 (sLe^x-capped, sialylated) on …; experiment: PSGL-1 CHO cells preincubated with GST-OmpA, Aph adherence counted (competition with the bacteria)
[2] = target: the molecule itself; experiment: non-reducing SDS-PAGE and Western blot with anti-Asp14

Binder	reduction of Aph binding to sLe^x-modified PSGL-1 relative to GST alone [1]	binding result [2]
B1	~60%	–
B2	–	binds
